Measurements: patent US20160207996A1 (ARGEN X N V, published 2016)

T1: hNav1.7-loopB1-C1-D1-llama Fc (human)
T1 construct: whole entry: loops B1, C1, D1 joined by linkers, llama Fc; also called hNav1.7-loopB1-C1-D1-llfc
T1 chain: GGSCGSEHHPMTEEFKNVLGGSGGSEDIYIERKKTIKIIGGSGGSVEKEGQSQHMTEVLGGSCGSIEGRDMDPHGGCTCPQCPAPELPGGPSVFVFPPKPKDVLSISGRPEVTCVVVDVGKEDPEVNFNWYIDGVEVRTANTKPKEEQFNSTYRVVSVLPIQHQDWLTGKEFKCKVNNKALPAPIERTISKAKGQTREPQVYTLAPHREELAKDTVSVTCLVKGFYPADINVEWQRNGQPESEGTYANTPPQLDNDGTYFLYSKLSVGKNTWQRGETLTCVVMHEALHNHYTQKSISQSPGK

T2: ratA3-llFc (rat)
T2 construct: also called rat Nav1.7 loopA3 llamaFc chimera
T2 chain: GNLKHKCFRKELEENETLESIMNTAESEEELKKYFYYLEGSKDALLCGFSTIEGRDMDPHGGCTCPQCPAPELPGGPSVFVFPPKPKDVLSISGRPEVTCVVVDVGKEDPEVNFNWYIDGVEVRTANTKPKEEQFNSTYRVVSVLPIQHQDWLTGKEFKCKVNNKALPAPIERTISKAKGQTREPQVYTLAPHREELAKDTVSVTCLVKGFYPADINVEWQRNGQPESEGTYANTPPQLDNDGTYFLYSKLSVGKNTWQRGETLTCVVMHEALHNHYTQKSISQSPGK

T3: hNav1.5-loopA3-llFc (human)
T3 construct: also called Nav1.5 extracellular loop A3 llamaFc chimera
T3 chain: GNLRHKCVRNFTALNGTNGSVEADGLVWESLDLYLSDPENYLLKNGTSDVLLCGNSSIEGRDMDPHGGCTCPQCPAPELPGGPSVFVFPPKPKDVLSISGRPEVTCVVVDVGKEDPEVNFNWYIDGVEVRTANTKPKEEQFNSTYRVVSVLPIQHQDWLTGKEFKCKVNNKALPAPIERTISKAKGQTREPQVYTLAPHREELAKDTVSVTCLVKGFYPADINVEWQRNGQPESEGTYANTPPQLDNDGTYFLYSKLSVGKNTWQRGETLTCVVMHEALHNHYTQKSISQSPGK

T4: hNav1.7-loopA3-llama Fc fusion (human)
T4 construct: also called hNav1.7-loopA3-llFc; loopA3-llamaFc chimera
T4 chain: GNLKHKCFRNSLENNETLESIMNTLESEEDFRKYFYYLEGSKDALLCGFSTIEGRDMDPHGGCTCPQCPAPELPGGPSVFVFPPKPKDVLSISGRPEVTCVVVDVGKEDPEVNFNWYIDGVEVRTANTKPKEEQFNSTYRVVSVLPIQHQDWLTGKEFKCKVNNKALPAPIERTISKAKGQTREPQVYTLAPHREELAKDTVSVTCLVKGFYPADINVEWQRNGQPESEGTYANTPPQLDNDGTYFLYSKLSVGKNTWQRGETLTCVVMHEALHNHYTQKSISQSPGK

T5: mouse A3-llamaFc (mouse, UniProt Q62205 269-319)
T5 construct: also called wild-type mouse A3 loop; not shown: linker and llama Fc of the A3-llamaFc construct
T5 sequence: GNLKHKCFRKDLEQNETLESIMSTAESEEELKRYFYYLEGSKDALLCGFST


Assays:
[1] = target: T1, hNav1.7-loopB1-C1-D1-llama Fc; test: binding ELISA on coated loop-llama Fc chimera (20 ng/well), OD620
Procedure: For all DNA-immunization derived mAbs the binding affinity for the various hNav1.7-loop-llama Fc chimeras was tested in a binding ELISA. Therefore, a Maxisorp plate (Nunc) was coated with 20 ng/well of hNav1.7-loopA3-llama Fc, hNav1.7-loopB1-C1-D1-llama Fc or hNav1.7-loopC3-llama Fc. Remainder of the ELISA setup is as described above. […] Only at very high concentration minor cross-reactivity is observed for some clones.

[2] = target: T6, GST-tagged hNav1.7-loopA3 (human, UniProt Q15858 269-339); test: binding ELISA on coated GST-tagged hNav1.7 loop A3 peptide, OD620
T6 construct: monomeric GST-tagged peptide; also called hNav1.7-loopA3-GST; Nav1.7-loopA3-GST; not shown: GST tag
Excerpt: (§1) The therapeutic potency of an anti-hNav1.7 antibody will highly depend on the lack of binding to other Nay family members. Of particular interest is hNav1.5, which is expressed on cardiac muscle cells. As such, cross-reactive binding of hNav1.7 antibodies to hNav1.5 could lead to heart failure. To assay the specificity of the mAbs derived from DNA immunization for hNav1.7, the corresponding loopA3 and loopB1-C1-D1 sequences of hNav1.5 were cloned as llamaFc chimera and cross-reactivity was determined using a binding ELISA (FIG. 8). All clones, except clone 9A6 and 9H4, show no cross-reactivity to hNav1.5. In addition, cross reactivity for hNav1.2 was tested for the loopA3-binding clones 8A7 and 8B6 using hNav1.2 and hNav1.7 derived monomeric, GST-tagged loopA3 peptides (Abnova, H00006326-Q01 (hNav1.2) and H00006335-Q01 (hNav1.7)). Again, no cross-reactive binding was observed.

ratA3-llFc = target: T2, ratA3-llFc; test: binding ELISA on coated rat Nav1.7 loop A3-llama Fc, OD620
[3] = target: T7, GST-tagged hNav1.2-loopA3 (human, UniProt Q99250 273-362); test: binding ELISA on coated GST-tagged hNav1.2 loop A3 peptide, OD620
T7 construct: bought (Abnova); monomeric; also called hNav1.2 derived monomeric GST-tagged loopA3 peptide; Abnova H00006326-Q01; not shown: GST tag
Excerpt: as §1

hNav1.5-loopA3-llFc = target: T3, hNav1.5-loopA3-llFc; test: binding ELISA on coated hNav1.5 loop A3-llama Fc, OD620
Excerpt: as §1

[4] = target: T4, hNav1.7-loopA3-llama Fc fusion; test: ELISA, coated loopA3-llama Fc 10 ng/well, mAb titrated
Procedure: In a next experiment, the binding affinity of the loop-specific mAbs was determined and compared to reference mAbs as described in US2011/0135662 (for loop A3: UCB_932, for loopB1-C1-D1: UCB_983, for loopC3: UCB_1066; US2011/0135662). Affinities were determined using an ELISA with a loop-coating of 10 ng/well (loopA3-llama Fc), 20 ng/well (loop-B1-C1-D1-llama Fc) or 50 ng/well (loopC3-llama Fc). The remainder of the experimental setup was identical to abovementioned binding ELISAs. Most of the mAbs show pM affinity for the respective hNav1.7 extracellular loop they are binding. […] The EC₅₀ for the reference mAbs could not be determined (nd) from the ELISA data available because the binding was too weak.

[5] = target: human Nav1.7 (full length) (human) (UniProt Q15858); test: cell-based or functional assay
[6] = target: T4, hNav1.7-loopA3-llama Fc fusion; test: binding ELISA of mAb 8A7 on coated loop A3-llama Fc chimeras, OD450
mouse A3-llamaFc = target: T5, mouse A3-llamaFc; test: as above
Mouse A3 mut1 = target: T8, Mouse A3 mut1 (mouse-human chimera, UniProt Q62205 269-319); test: as above
T8 construct: also called mouse A3 mut1 loop; not shown: linker and llama Fc of the A3-llamaFc construct

T7 sequence (Q99250 273-362 limits assumed): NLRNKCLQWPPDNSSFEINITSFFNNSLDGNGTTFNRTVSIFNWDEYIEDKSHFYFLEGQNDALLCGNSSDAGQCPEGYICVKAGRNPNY

| Binder | binding result [1] | EC50 (read off the curve) [2] [nM] | EC50 (read off the curve) (ratA3-llFc) [nM] | binding result [3] | binding result (hNav1.5-loopA3-llFc) | EC50 [4] [nM] | % inhibition of inward current following P02 voltage protocol, 10 µg/ml [5] [%] | % inhibition of inward current following P02 voltage protocol, 25 µg/ml [5] [%] | % inhibition of inward current following P02 voltage protocol, 100 µg/ml [5] [%] | EC50 (read off the curve) [6] [nM] | binding result (mouse A3-llamaFc) | binding result (Mouse A3 mut1) |
| --- | --- | --- | --- | --- | --- | --- | --- | --- | --- | --- | --- | --- |
| 8B6 (antibody, human IgG1, V domains shown) VH: EVQLQESGPGLVKPSQTLSLTCTVSGGSISTSGTGWSWIRQPPGKGLEWMGIIGYDGGTYYNPSLKSRTSISRDTSKNQFSLQLTSVTPEDTAVYYCARGLGPWGQGIQVTVSS VL: DIQMTQSPSSLSASLGDRVTITCQASQGISKYLAWYQQKPGQAPKLLIYSASRLETGVPSRFSGSGSGTTFTLVISGLEAEDAGSYYCQQYYRAPATFGQGTKVELK | no binding (tested: about 66 nM) | ~0.5 | ~0.6 | no binding (tested: about 130 nM) | no binding (tested: about 66 ng/ml (axis as labelled)) | 0.37 | 30.2 | 58.4 | 72.2 |  |  |  |
| 8A7 (antibody, human IgG1, V domains shown, also called mAb 8A7) VH: EVQVQESGPGLVTPSQTLSLTCTVSGGSIKNNYYYWNWIRQPPGKGLEWMGAIAYSGSTYYSPSLQSRTSISRDTSKNQFTLQLSSVTPEDTAVYYCARVPSVFGLPYGGMNYWGKGTLVTVSS VL: SYELTQSPSVTVALRQTAKITCGGSRIGSKSVQWYQQKPGQVPVLVIYADNRRPSRIPERFSGSNSGNTATLIISGAQAEDEADYYCQVWDSSAAVFGGGTHLTVLG |  |  |  | no binding (tested: about 130 nM) | no binding (tested: about 66 ng/ml (axis as labelled)) | 0.23 | 4 | 33.3 | 47.6 | ~0.08 | no binding (tested: about 33 nM) | no binding (tested: about 33 nM) |
